Assays:
Grb2 SH2 = Grb2 SH2 (UniProt P62993); assay: SH2 binding enrichment of the phosphorylated peptide, bacterial display (enrichment ratio); higher = better substrate or ligand; peptides without Tyr show the background
SHP2-C SH2 = assay: as above
c-Src SH2 = assay: as above
Fyn = Fyn (UniProt P06241); assay: phosphorylation enrichment, bacterial display (enrichment ratio); higher = better substrate or ligand; peptides without Tyr show the background
c-Abl (mouse) = assay: as above
EPHB2 = EPHB2 (UniProt P29323); assay: as above
Chain of EPHB2 (P29323 whole entry, looked up): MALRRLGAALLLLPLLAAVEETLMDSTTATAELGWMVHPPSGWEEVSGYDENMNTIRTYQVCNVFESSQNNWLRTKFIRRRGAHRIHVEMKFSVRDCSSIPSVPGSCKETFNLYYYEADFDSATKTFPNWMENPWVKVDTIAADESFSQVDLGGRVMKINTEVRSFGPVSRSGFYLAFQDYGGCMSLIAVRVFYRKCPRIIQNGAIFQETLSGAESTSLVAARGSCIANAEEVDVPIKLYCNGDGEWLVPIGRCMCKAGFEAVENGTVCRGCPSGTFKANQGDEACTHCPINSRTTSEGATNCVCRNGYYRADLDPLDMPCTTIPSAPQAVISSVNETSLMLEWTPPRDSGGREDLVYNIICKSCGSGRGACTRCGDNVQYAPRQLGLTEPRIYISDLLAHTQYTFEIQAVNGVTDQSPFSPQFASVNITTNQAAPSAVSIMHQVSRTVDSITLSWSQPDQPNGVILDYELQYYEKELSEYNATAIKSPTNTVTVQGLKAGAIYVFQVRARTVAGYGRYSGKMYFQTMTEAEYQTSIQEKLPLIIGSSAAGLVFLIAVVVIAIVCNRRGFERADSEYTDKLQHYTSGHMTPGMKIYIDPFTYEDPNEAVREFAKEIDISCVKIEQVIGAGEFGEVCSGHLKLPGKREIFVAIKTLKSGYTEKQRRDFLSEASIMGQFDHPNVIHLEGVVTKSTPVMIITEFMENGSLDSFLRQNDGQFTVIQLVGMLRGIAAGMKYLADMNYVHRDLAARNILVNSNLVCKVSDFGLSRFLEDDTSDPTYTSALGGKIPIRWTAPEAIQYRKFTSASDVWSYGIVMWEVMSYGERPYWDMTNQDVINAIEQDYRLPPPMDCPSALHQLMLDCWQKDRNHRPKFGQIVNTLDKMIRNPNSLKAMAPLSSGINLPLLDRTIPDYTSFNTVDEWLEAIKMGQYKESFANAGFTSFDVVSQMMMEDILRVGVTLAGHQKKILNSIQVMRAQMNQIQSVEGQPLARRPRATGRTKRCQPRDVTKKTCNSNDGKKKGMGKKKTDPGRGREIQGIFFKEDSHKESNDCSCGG

FGFR3 = FGFR3 (UniProt P22607); assay: as above
Chain of FGFR3 (P22607 whole entry, looked up): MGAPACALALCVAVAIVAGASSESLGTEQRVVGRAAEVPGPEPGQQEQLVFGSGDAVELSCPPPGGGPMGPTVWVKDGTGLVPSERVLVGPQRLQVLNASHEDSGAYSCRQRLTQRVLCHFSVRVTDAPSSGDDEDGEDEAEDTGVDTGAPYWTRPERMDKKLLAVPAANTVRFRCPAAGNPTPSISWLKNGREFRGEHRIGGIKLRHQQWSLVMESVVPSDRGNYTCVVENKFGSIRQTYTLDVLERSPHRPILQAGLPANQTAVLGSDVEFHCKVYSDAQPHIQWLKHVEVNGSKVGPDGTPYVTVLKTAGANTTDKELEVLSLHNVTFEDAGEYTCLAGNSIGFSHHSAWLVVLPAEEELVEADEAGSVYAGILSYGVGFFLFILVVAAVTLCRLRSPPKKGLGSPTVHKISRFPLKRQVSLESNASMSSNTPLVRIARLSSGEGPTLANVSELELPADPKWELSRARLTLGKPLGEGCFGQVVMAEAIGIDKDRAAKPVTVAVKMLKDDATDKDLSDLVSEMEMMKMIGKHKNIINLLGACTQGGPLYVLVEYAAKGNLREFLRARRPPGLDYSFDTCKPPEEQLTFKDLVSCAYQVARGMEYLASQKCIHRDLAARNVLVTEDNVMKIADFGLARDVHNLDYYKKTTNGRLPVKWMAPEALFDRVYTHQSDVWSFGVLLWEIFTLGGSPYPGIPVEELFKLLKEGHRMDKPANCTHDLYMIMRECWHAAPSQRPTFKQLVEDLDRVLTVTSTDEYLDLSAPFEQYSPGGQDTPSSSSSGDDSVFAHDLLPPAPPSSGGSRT

c-Src = assay: as above
Fer (mouse) = assay: as above
Fes = Fes (UniProt P07332); assay: as above
Chain of Fes (P07332 whole entry, looked up): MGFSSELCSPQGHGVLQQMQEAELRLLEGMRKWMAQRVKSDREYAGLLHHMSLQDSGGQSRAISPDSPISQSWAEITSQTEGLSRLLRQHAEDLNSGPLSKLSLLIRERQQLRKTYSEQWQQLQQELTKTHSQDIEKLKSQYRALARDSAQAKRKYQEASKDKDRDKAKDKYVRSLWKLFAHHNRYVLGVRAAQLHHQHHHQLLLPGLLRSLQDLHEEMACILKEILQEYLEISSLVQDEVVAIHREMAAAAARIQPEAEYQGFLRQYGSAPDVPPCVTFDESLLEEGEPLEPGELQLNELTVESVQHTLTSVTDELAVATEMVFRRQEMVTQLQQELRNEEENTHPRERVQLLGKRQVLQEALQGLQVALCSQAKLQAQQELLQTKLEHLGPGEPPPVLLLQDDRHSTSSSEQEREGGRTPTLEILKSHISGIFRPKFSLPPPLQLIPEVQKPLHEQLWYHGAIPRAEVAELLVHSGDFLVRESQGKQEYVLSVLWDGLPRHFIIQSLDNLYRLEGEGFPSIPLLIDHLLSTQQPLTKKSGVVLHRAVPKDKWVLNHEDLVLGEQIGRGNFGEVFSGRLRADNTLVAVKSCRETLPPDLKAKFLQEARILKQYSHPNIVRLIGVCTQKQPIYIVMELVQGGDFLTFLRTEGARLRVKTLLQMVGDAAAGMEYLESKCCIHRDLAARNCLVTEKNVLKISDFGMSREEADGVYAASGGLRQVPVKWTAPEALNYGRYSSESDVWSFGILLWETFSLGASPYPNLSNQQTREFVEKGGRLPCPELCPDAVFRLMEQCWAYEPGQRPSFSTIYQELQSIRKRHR

AncSZ = assay: as above
MERTK = MERTK (UniProt Q12866); assay: as above
Chain of MERTK (Q12866 whole entry, looked up): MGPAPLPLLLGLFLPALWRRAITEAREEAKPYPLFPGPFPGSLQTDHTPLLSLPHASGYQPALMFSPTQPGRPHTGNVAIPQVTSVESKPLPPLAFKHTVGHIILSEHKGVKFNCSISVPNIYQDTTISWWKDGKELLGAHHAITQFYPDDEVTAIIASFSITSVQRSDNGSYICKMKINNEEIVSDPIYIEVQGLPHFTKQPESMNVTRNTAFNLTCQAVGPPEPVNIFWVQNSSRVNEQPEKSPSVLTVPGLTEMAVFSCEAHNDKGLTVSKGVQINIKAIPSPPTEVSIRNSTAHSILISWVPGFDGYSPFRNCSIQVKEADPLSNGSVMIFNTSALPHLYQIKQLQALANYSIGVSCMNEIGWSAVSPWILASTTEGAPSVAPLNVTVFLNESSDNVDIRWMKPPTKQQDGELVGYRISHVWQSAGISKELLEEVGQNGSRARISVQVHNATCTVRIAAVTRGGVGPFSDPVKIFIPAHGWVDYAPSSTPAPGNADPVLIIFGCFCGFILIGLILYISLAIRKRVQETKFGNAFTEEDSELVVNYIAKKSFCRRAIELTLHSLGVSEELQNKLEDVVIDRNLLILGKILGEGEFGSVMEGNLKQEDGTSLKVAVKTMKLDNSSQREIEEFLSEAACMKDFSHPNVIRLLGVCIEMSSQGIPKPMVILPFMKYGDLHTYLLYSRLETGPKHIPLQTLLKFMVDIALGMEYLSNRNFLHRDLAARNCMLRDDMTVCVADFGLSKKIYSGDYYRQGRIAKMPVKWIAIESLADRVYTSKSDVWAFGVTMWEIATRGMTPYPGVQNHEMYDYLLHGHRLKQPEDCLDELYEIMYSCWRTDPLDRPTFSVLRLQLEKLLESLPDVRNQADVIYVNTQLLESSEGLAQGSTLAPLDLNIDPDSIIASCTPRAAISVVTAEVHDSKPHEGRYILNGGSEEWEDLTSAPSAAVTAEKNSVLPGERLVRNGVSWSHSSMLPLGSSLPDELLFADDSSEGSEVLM

EPHB1 = EPHB1 (UniProt P54762); assay: as above
Jak2 = Jak2 (UniProt O60674); assay: as above
FGFR1 = FGFR1 (UniProt P11362); assay: as above
Chain of FGFR1 (P11362 whole entry, looked up): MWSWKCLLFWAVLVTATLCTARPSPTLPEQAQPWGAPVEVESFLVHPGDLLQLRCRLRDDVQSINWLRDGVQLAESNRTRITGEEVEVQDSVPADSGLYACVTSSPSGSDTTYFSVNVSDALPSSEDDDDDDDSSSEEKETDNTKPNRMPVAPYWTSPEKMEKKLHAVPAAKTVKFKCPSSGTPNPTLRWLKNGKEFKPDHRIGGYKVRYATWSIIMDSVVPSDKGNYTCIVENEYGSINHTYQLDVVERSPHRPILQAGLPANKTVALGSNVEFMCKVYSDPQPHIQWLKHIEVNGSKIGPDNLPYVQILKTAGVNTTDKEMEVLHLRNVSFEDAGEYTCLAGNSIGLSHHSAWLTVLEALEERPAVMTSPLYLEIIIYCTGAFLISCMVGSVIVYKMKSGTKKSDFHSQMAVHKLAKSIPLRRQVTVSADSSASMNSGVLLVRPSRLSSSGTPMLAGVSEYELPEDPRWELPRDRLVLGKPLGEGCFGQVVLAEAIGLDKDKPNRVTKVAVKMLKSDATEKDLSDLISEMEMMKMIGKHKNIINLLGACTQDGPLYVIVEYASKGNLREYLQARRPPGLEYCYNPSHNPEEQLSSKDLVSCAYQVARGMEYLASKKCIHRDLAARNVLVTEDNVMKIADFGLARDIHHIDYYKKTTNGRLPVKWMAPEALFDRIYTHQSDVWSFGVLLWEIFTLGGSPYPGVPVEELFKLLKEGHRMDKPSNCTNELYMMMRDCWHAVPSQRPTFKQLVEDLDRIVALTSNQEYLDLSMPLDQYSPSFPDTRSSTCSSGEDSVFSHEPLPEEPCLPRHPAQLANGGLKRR

Hck = Hck (UniProt P08631); assay: as above
Chain of Hck (P08631 whole entry, looked up, the tested form may be a part): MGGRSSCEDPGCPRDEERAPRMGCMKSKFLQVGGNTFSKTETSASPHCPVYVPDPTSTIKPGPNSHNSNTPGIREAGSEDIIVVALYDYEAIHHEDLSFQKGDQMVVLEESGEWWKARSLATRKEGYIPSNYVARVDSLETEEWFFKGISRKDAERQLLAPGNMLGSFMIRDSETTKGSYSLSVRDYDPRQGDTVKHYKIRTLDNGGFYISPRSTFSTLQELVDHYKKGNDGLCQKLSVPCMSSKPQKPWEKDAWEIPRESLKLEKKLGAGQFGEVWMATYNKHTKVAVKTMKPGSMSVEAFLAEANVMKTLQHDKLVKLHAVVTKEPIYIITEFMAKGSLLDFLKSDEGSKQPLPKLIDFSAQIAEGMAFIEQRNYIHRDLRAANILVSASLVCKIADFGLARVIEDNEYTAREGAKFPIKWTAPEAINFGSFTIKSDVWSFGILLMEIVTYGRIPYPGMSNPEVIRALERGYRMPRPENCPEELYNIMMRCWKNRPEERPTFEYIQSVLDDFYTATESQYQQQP
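Throughout, for SH2 binding enrichment of the phosphorylated peptide, bacterial display: peptide library displayed on the E. coli surface as eCPX fusions, selected cells deep-sequenced, score is each peptide's frequency after selection divided by its frequency in the input.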
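Throughout, for phosphorylation enrichment, bacterial display: 11-residue human phosphosite peptides and single-mutation variants displayed on the E. coli surface, counted by deep sequencing, each peptide's frequency after selection divided by its frequency in the unselected input library; frequency after pTyr selection over input frequency; kinase dosed for 20-30% of maximal phosphorylation in three min.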

Sequence | SH2 binding enrichment (Grb2 SH2) | SH2 binding enrichment (SHP2-C SH2) | SH2 binding enrichment (c-Src SH2) | phosphorylation enrichment (Fyn) | phosphorylation enrichment (c-Abl (mouse)) | phosphorylation enrichment (EPHB2) | phosphorylation enrichment (FGFR3) | phosphorylation enrichment (c-Src) | phosphorylation enrichment (Fer (mouse)) | phosphorylation enrichment (Fes) | phosphorylation enrichment (AncSZ) | phosphorylation enrichment (MERTK) | phosphorylation enrichment (EPHB1) | phosphorylation enrichment (Jak2) | phosphorylation enrichment (FGFR1) | phosphorylation enrichment (Hck)
ADLTEYLSTHY [UQCRC1_Y219] | 1.13 | 0.716 | 0.638 | 0.549 | 0.649 | 0.622 | 0.697 | 0.625 | 0.553 | 0.972 | 1.01 | 0.462 | 0.58 | 0.908 | 0.52 | 0.555
APQYTYAQGGQ [FLNA_Y1763] | 0.778 | 1.26 | 2.62 | 0.486 | 0.54 | 0.43 | 0.53 | 0.455 | 0.409 | 0.643 | 0.72 | 0.486 | 0.373 | 0.54 | 0.453 | 0.509
DYNPNYCFAGK [ALK_Y1096] | 0.799 | 0.788 | 0.532 | 0.607 | 0.812 | 1.07 | 0.778 | 0.63 | 0.735 | 1.03 | 1.82 | 0.906 | 2.62 | 0.873 | 0.641 | 0.563
FFIMMYTGSSV [DNAJC13_Y1131_N1135S] | 0.703 | 0.851 | 0.455 | 0.316 | 0.743 | 0.468 | 0.533 | 0.342 | 0.456 | 1.07 | 0.97 | 0.325 | 0.62 | 0.824 | 0.366 | 0.438
SLNEGYARDFD [FBP1_Y216] | 1.06 | 0.765 | 0.562 | 0.639 | 0.767 | 0.573 | 0.617 | 0.44 | 0.554 | 0.94 | 1.06 | 0.485 | 0.505 | 0.908 | 0.461 | 0.547
DFLSSYSAVNE [OAT_Y85_Q90E] | 0.864 | 0.902 | 2.35 | 0.531 | 0.566 | 0.596 | 0.685 | 0.468 | 0.525 | 0.953 | 0.896 | 0.49 | 0.504 | 0.745 | 0.55 | 0.554
INPIIYAFVGG [CCR5_Y297_E302G] | 0.746 | 0.57 | 0.491 | 6.26 | 14.4 | 9.68 | 3.51 | 5.05 | 6.66 | 2.1 | 1.14 | 8.42 | 11.5 | 1.55 | 4.39 | 6.35
LLIMEYAKFGS [RET_Y806_V804M_YF] | 1.35 | 0.655 | 0.929 | 1.09 | 1.51 | 0.968 | 0.697 | 1.96 | 0.909 | 1.77 | 1.34 | 0.701 | 1.07 | 2.11 | 0.772 | 1.59
RSSPVYVGRVV [TGM2_Y219] | 1.13 | 1.39 | 0.758 | 1.42 | 1.71 | 0.796 | 0.82 | 1.42 | 0.945 | 1.03 | 1.18 | 0.818 | 0.59 | 1.03 | 0.77 | 2.22

More lines, main results first:

SH2 binding enrichment (Grb2 SH2) | SH2 binding enrichment (SHP2-C SH2) | SH2 binding enrichment (c-Src SH2) | Sequence | phosphorylation enrichment (Fyn) | phosphorylation enrichment (c-Abl (mouse)) | phosphorylation enrichment (EPHB2) | phosphorylation enrichment (FGFR3) | phosphorylation enrichment (c-Src) | phosphorylation enrichment (Fer (mouse)) | phosphorylation enrichment (Fes) | phosphorylation enrichment (AncSZ) | phosphorylation enrichment (MERTK) | phosphorylation enrichment (EPHB1) | phosphorylation enrichment (Jak2) | phosphorylation enrichment (FGFR1) | phosphorylation enrichment (Hck)
0.913 | 0.874 | 1.05 | KHCEDYVCSYN [DSC1_Y846] | 0.502 | 0.771 | 0.578 | 0.662 | 1.36 | 0.506 | 1.23 | 1.14 | 0.398 | 0.63 | 0.93 | 0.627 | 0.555
0.723 | 0.8 | 0.678 | HNQDDYSFPSR [LDLR_Y845_G844D_YF] | 0.737 | 0.545 | 2.14 | 0.75 | 0.633 | 0.573 | 0.77 | 5.49 | 0.553 | 1.3 | 0.536 | 0.539 | 0.586
0.82 | 0.685 | 0.528 | DKMEAYNIDET [TEKT4_Y210] | 0.568 | 0.755 | 0.618 | 0.83 | 0.492 | 0.584 | 1.29 | 1.32 | 0.459 | 0.604 | 1.04 | 0.56 | 0.583
1.41 | 11.3 | 1.16 | GRVYVYRLSEQ [ITGAE_Y551] | 0.568 | 0.683 | 0.471 | 0.661 | 0.725 | 0.508 | 1.04 | 0.858 | 0.4 | 0.539 | 0.83 | 0.411 | 0.462
1.12 | 0.591 | 0.646 | HQEPVCSVAFS [TBL1X_Y509_Y509C] | 0.658 | 1.09 | 0.654 | 1.1 | 0.794 | 0.874 | 2.01 | 1.07 | 0.791 | 0.804 | 1.17 | 1.12 | 0.69
0.874 | 0.762 | 0.61 | GRQGIYTENKR [GPR143_Y231_E235K] | 0.372 | 0.46 | 0.347 | 0.477 | 0.529 | 0.346 | 0.585 | 0.723 | 0.53 | 0.349 | 0.527 | 0.477 | 0.437
1.41 | 1.15 | 0.876 | PSSNLYFRWLT [CNGA3_Y168_YF] | 0.886 | 0.822 | 0.959 | 1.33 | 1.11 | 1.02 | 1.2 | 1.7 | 4.73 | 0.688 | 3.54 | 1.52 | 1.38

From the supplement of paper PMC10065799, “High-throughput profiling of sequence recognition by tyrosine kinases and SH2 domains using bacterial peptide display” (eLife, 2023)
